Laboratory results published in article PMC11399303, “Recombinant expression and characterization of the endochitinase Chit36-TA from Trichoderma asperellum in Komagataella phaffii for chitin degradation of black soldier fly exuviae” (Bioprocess and Biosystems Engineering, 2024).

Substrate: CC(=O)N[C@H]1[C@H](Oc2ccc3c(C)cc(=O)oc3c2)O[C@H](CO)[C@@H](O[C@@H]2O[C@H](CO)[C@@H](O[C@@H]3O[C@H](CO)[C@@H](O)[C@H](O)[C@H]3NC(C)=O)[C@H](O)[C@H]2NC(C)=O)[C@@H]1O
Assay: fluorometric 4-methylumbelliferone release, nonlinear regression
Assay type: biochemical, Trichoderma asperellum
Conditions: 50 mM sodium acetate, pH 4.5, 40 °C, 5-70 µM substrate
Description: fluorometric 4-methylumbelliferone release, nonlinear regression on Chit36-TA

B1: Chit36-TA (Trichoderma asperellum CBS 433.97) (protein)
chain: QNATCALKGKPAGKVLMGYWENWDGAANGVHPGFGWTPIENPIIKQNGYNVINAAFPVILSDGTALWENDMAPDTQVATPAEMCEAKAAGATILLSIGGATAGIDLSSSAVADKFIATIVPILKQYNFDGIDIDIETGLTNSGNINTLSTSQTNLIRIIDGVLAQMPSNFGLTMAPETAYVTGGSITYGSIWGAYLPIIQKYVQNGRLWWLNMQYYNGDMYGCSGDSYAAGTVQGFIAQTDCLNAGLTIQGTTIKVPYDMQVPGLPAQSGAGGGYMNPSLVGQAWDHYNGALKGLMTWSINWDGAGNWTFGDNLLTRIG
notes: mature protein without native signal peptide, C-terminal His6 (kept), codon-optimized synthetic gene, secreted from Komagataella phaffii BG10, Ni-NTA purified, N-glycosylated (43 kDa)
- Km: 289 µM
- Vmax: 3 µmol/min/mg
